# Laboratory results taken from publication PMC7195491.
# pKd: −log10 of the molar value. Where “and” joins values, the source holds several entries; their conditions need not be identical. Identical values can stand only once. Like-named read-outs stand apart in the source and are kept apart here.
# Tests used:
# [1] = target: DIP-α I16A {I91A}, extracellular region (Drosophila melanogaster) (UniProt Q9W4R3); assay: SPR; Biacore T100, CM4 chip; DIPs and DIP mutants immobilised by amine coupling, Dprs as analytes; 25 °C; 10 mM Tris-HCl pH 7.2, 150 mM NaCl, 1 mM EDTA, 1 mg/mL BSA, 0.01% Tween-20; duplicate responses fit globally to a 1:1 model; Rmax fixed for KDs > 100 μM, lower limit listed for KDs > 300 μM
# [2] = target: DIP-α G4L {G74L}, extracellular region (Drosophila melanogaster) (UniProt Q9W4R3); assay: as above
# [3] = target: DIP-α K10Q G4S {K81Q G74S}, extracellular region (Drosophila melanogaster) (UniProt Q9W4R3); assay: as above
# [4] = target: DIP-α K10Q S32D {K81Q S133D}, extracellular region (Drosophila melanogaster) (UniProt Q9W4R3); assay: as above
# [5] = target: DIP-α N19D {N94D}, extracellular region (Drosophila melanogaster) (UniProt Q9W4R3); assay: as above
# [6] = target: DIP-α (Dpr Interacting Protein alpha), extracellular region (Drosophila melanogaster) (UniProt Q9W4R3); assay: as above
# [7] = target: DIP-α A11T {A82T}, extracellular region (Drosophila melanogaster) (UniProt Q9W4R3); assay: as above
# [8] = target: DIP-α K10Q {K81Q}, extracellular region (Drosophila melanogaster) (UniProt Q9W4R3); assay: as above
# [9] = target: DIP-α G4A {G74A}, extracellular region (Drosophila melanogaster) (UniProt Q9W4R3); assay: as above
# [10] = target: DIP-α A7K {A78K}, extracellular region (Drosophila melanogaster) (UniProt Q9W4R3); assay: as above
# [11] = target: DIP-α K10Q D29S {K81Q D129S}, extracellular region (Drosophila melanogaster) (UniProt Q9W4R3); assay: as above
# [12] = target: DIP-α (Dpr Interacting Protein alpha), extracellular region (Drosophila melanogaster) (UniProt Q9W4R3); assay: as above; remark: listed apart in the source
# [13] = target: DIP-β (isoformG), extracellular region (Drosophila melanogaster); assay: as above
# [14] = target: DIP-γ mutant at position 9 (Drosophila melanogaster); assay: SPR; Biacore T100, CM4 chip; DIPs and DIP mutants immobilised by amine coupling (760-980 RU), Dprs and Dpr mutants as analytes (three-fold dilution series, up to 81 μM, in some cases up to 27 or 9 μM); 25 °C; 10 mM Tris-HCl pH 7.2, 150 mM NaCl, 1 mM EDTA, 1 mg/mL BSA, 0.01% Tween-20; equilibrium fit, 1:1 model; for KDs > 300 μM a lower limit is listed
# [15] = target: DIP-γ (Drosophila melanogaster); assay: as above
# [16] = target: DIP-γ R15N {R86N}, extracellular region (Drosophila melanogaster) (UniProt Q9VAR6); assay: SPR; Biacore T100, CM4 chip; DIPs and DIP mutants immobilised by amine coupling, Dprs as analytes; 25 °C; 10 mM Tris-HCl pH 7.2, 150 mM NaCl, 1 mM EDTA, 1 mg/mL BSA, 0.01% Tween-20; duplicate responses fit globally to a 1:1 model; Rmax fixed for KDs > 100 μM, lower limit listed for KDs > 300 μM
# [17] = target: DIP-γ (Dpr Interacting Protein gamma), extracellular region (Drosophila melanogaster) (UniProt Q9VAR6); assay: as above
# [18] = target: DIP-γ R22S {R112S}, extracellular region (Drosophila melanogaster) (UniProt Q9VAR6); assay: as above
# [19] = target: DIP-γ (Dpr Interacting Protein gamma), extracellular region (Drosophila melanogaster) (UniProt Q9VAR6); assay: as above; remark: listed apart in the source
# Chain of DIP-γ (Dpr Interacting Protein gamma), extracellular region (Drosophila melanogaster) (Q9VAR6 entry or part of it): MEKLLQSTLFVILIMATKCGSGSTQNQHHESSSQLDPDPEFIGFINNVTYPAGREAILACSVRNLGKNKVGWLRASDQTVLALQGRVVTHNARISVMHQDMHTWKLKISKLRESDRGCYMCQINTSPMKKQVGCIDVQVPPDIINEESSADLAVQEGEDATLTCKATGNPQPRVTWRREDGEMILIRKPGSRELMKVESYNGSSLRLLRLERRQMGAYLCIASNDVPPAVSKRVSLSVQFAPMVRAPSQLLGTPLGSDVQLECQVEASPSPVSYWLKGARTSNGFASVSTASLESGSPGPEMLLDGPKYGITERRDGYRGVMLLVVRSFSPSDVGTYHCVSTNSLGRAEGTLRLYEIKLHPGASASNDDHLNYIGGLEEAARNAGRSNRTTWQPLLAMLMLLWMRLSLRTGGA
# Chain of DIP-γ R22S {R112S}, extracellular region (Drosophila melanogaster) (Q9VAR6 entry or part of it R22S {R112S} | R22S R112S): as the sequence (Q9VAR6 entry or part of it) above, with R112S counted along it
# Chain of DIP-γ R15N {R86N}, extracellular region (Drosophila melanogaster) (Q9VAR6 entry or part of it R15N {R86N} | R15N R86N): as the sequence (Q9VAR6 entry or part of it) above, with R86N counted along it
Substance,pKd [1],pKd [2],pKd [3],pKd [4],pKd [5],pKd [6],pKd [7],pKd [8],pKd [9],pKd [10],pKd [11],pKd [12],pKd [13],pKd [14],pKd [15],pKd [16],pKd [17],pKd [18],pKd [19]
"Dpr10 (Defective proboscis extension response 10), extracellular region (from UniProt M9PF17 1-362) (domain or fragment)",4.24,4.34,4.17,4.41,5.85,5.85,4.74,4.50,6.05,6.55,4.38,5.89,4.48,,,,,,
Dpr11 (domain or fragment),,,,,,,,,,,,,,4.43,5.10,,,,
"Dpr11 (Defective proboscis extension response 11), extracellular region (from UniProt Q8MRE6 1-360) (domain or fragment)",,,,,,,,,,,,< 3.30,3.57,,,4.88,5.07 and 5.15,5.02,5.15
